From the supplement of paper PMC7877785 come the findings set out here.

± gives the uncertainty stated by the source.

This data set in a line: self-splicing fitness, log relative to wild type (ln ratio); higher = more splicing; Tetrahymena group I intron in knt gene, E. coli kanamycin selection, DiMSum; sequences stand for … in CUCUCU…GGAGGGAAAAGUUAUCAGGCAUGCACCUGGUAGCUAGUCUUUAAACCAAUAGAUUGCAUCGGUUUAAAAGGCAAGACCGUCAAAUUGCGGGAAAGGGGUCAACAGCCGUUCAGUACCAAGUCUCAGGGGAAACUUUGAGAUGGCCUUGCAAAGGGUAUGGUAAUAAGCUGACGGACAUGGUCCUAACCACGCAGCCAAGUCCUAAGUCAACAGAUCUUCUGUUGAUAUGGAUGCAGUUCACAGACUAAAUGUCGGUCGGGGAAGAUGUAUUCUUCUCAUAAGAUAUAGUCGGACCUCUCCUUAAUGGGAGCUAGCGGAUGAAGUGAUGCAACACUGGAGCCGCUGGGAACUAAUUUGUAUGCGAAAGUAUAUUGAUUAGUUUUGGAGUACUCGUGGUCG
In short, it runs like this: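 DiMSum derived fitness as the error-weighted combination of fold changes across replicates, kanamycin versus no kanamycin, normalised to wild type. E. coli BL21(DE3) held the library, which randomised all eight P1ex-region intron nucleotides within the knt kanamycin-resistance gene on pET-22b(+). Six replicate transformations grew overnight at 37°C or 30°C on LB agar with or without 25 μg/mL kanamycin, also containing 100 μg/mL carbenicillin, 50 μM IPTG and 0.2% rhamnose, and pooled colonies were amplicon-sequenced on an Illumina HiSeq 2500.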

Turning to GGACAGCAAUAUUACGAGCG, the “self-splicing fitness (ln)” value runs as follows: (30 °C) -0.482 ± 0.081; (37 °C) 0.0554 ± 0.12.
For GAAUAGCAAUAUUACGUACG the same measures were -1.38 ± 0.12 and -1.45 ± 0.14.
For AUCCAGCAAUAUUACGUCAA the same measures were -1.99 ± 0.1 and -1.54 ± 0.098.
Regarding UAAUAGCAAUAUUACGGUAA, under “37 °C”, the “self-splicing fitness (ln)” value is -1.04 ± 0.28.
Regarding UCUCAGCAAUAUUACGCGCU, the “self-splicing fitness (ln)” value (37 °C) is -3.12 ± 0.43.
Take GCAGAGCAAUAUUACGCCAG: the “self-splicing fitness (ln)” value (30 °C) is -2.36 ± 0.48.
Turning to CCCAAGCAAUAUUACGGCUG, the “self-splicing fitness (ln)” value is -4.22 ± 0.23 (30 °C) and -2.69 ± 0.16 (37 °C).
Turning to GACGAGCAAUAUUACGUAGA, the “self-splicing fitness (ln)” value runs as follows: (30 °C) -2.81 ± 0.26; (37 °C) -1.98 ± 0.22.
On to CAUGAGCAAUAUUACGAGUU, for which, under “37 °C”, the “self-splicing fitness (ln)” value is -2.6 ± 0.24.
Take AUUAAGCAAUAUUACGGUCC: the “self-splicing fitness (ln)” value (30 °C) was -0.321 ± 0.14 and the “self-splicing fitness (ln)” value (37 °C) is -0.358 ± 0.19.
For CAUGAGCAAUAUUACGGCAG the same measures were -0.481 ± 0.086 and -0.96 ± 0.14.
The like results for UUUCAGCAAUAUUACGCAUA were, in that order, -2.13 ± 0.21 and -0.691 ± 0.17.
For UUGUAGCAAUAUUACGGUCU the same measures were -2.53 ± 0.21 and -1.53 ± 0.17.
As for UACUAGCAAUAUUACGACAA, the “self-splicing fitness (ln)” value (30 °C) is -0.443 ± 0.12 and the “self-splicing fitness (ln)” value (37 °C) was -0.256 ± 0.11.
On to AAUCAGCAAUAUUACGCACU, for which the “self-splicing fitness (ln)” value (30 °C) is -0.299 ± 0.077 and the “self-splicing fitness (ln)” value (37 °C) turned out to be 0.326 ± 0.093.
For CGGUAGCAAUAUUACGCUGA, the “self-splicing fitness (ln)” value is, setting by setting: (30 °C) -2.23 ± 0.21; (37 °C) -0.951 ± 0.2.
As for CCCCAGCAAUAUUACGAUGG, the “self-splicing fitness (ln)” value was -3.49 ± 0.15 (30 °C) and -2.82 ± 0.21 (37 °C).
For UAUGAGCAAUAUUACGACGU the same measures were -3.11 ± 0.21 and -2.62 ± 0.3.
As to UUGAAGCAAUAUUACGUUAC, the “self-splicing fitness (ln)” value (37 °C) was -2.51 ± 0.23.
For GUAUAGCAAUAUUACGAGCG, the “self-splicing fitness (ln)” value is, setting by setting: (30 °C) -1.98 ± 0.16; (37 °C) -1.39 ± 0.14.
In the case of CACGAGCAAUAUUACGGGUA, the “self-splicing fitness (ln)” value was -3.26 ± 0.18 (30 °C) and -2.02 ± 0.16 (37 °C).
The like results for ACCGAGCAAUAUUACGCAGC were, in that order, -4.02 ± 0.47 and -2.84 ± 0.48.
As to AUUAAGCAAUAUUACGCGUC, the “self-splicing fitness (ln)” value reads like this: (30 °C) -2.77 ± 0.3; (37 °C) -2.19 ± 0.38.
As to AGCAAGCAAUAUUACGAGCU, the “self-splicing fitness (ln)” value was -3.42 ± 0.17 (30 °C) and -2.15 ± 0.21 (37 °C).
UGGGAGCAAUAUUACGUGCU: the “self-splicing fitness (ln)” value was -2.65 ± 0.32 (30 °C) and -1.05 ± 0.25 (37 °C).
For UUGAAGCAAUAUUACGGUUC the same measures were -3.01 ± 0.2 and -2.08 ± 0.27.
The like results for AUCUAGCAAUAUUACGGAUG were, in that order, -2.12 ± 0.12 and 0.0806 ± 0.12.
The like results for UCUUAGCAAUAUUACGAAAU were, in that order, -3.48 ± 0.33 and -3.09 ± 0.35.
Turning to GCGGAGCAAUAUUACGGUCA, the “self-splicing fitness (ln)” value was -2.75 ± 0.17 (30 °C) and -1.04 ± 0.13 (37 °C).
For AUGCAGCAAUAUUACGCCUC the same measures were -2.55 ± 0.2 and -1.35 ± 0.14.
For AAAUAGCAAUAUUACGCCAC the same measures were -3.22 ± 0.36 and -2.18 ± 0.5.
As for CAAGAGCAAUAUUACGUGAC, the “self-splicing fitness (ln)” value (37 °C) is -3.01 ± 0.18.
On to CGCGAGCAAUAUUACGCAAU, for which the “self-splicing fitness (ln)” value was -4.68 ± 0.36 (30 °C) and -2.83 ± 0.29 (37 °C).
For UAGGAGCAAUAUUACGAAUG the same measures were -1.64 ± 0.4 and -0.141 ± 0.49.
The like results for AAGUAGCAAUAUUACGGAAC were, in that order, -1.4 ± 0.49 and -1.46 ± 0.25.
For CACUAGCAAUAUUACGGCGA the same measures were -2.43 ± 0.16 and -1.61 ± 0.2.
UGAUAGCAAUAUUACGUGCG: the “self-splicing fitness (ln)” value is, setting by setting: (30 °C) -0.579 ± 0.1; (37 °C) -0.921 ± 0.087.
The like results for GGGUAGCAAUAUUACGGCCU were, in that order, -3.57 ± 0.38 and -2.14 ± 0.46.
Regarding UUUCAGCAAUAUUACGUCAG, the “self-splicing fitness (ln)” value reads like this: (30 °C) -0.968 ± 0.089; (37 °C) -0.726 ± 0.12.
The like results for CCGUAGCAAUAUUACGGUUA were, in that order, -3.29 ± 0.16 and -1.57 ± 0.12.
The like results for CCUGAGCAAUAUUACGAAGC were, in that order, -2.38 ± 0.14 and -2.58 ± 0.3.
With AUCGAGCAAUAUUACGUACG, where the note is “37 °C”, the “self-splicing fitness (ln)” value is -2.07 ± 0.27.
As for AAACAGCAAUAUUACGCUCA, the “self-splicing fitness (ln)” value was -0.43 ± 0.081 (30 °C) and 0.168 ± 0.1 (37 °C).
The like results for UACAAGCAAUAUUACGUAAC were, in that order, -4.15 ± 0.16 and -2.28 ± 0.15.
Turning to AGAUAGCAAUAUUACGCCUU, the “self-splicing fitness (ln)” value is -0.881 ± 0.09 (30 °C) and -0.255 ± 0.11 (37 °C).
The like results for AAUUAGCAAUAUUACGACAC were, in that order, -0.631 ± 0.11 and -0.0896 ± 0.14.
For GCCAAGCAAUAUUACGGUCU the same measures were -2.26 ± 0.12 and -0.79 ± 0.12.
For the sequence AUCCAGCAAUAUUACGAGAC, the “self-splicing fitness (ln)” value (30 °C) is -2.51 ± 0.091 and the “self-splicing fitness (ln)” value (37 °C) is -2.01 ± 0.11.
The like results for GCGAAGCAAUAUUACGGGCA were, in that order, -1.96 ± 0.15 and -0.529 ± 0.11.
The like results for CGUGAGCAAUAUUACGAUCA were, in that order, -2.06 ± 0.14 and -0.309 ± 0.12.
For UGGGAGCAAUAUUACGCCGC, the “self-splicing fitness (ln)” value (30 °C) is -2.27 ± 0.47.
For the sequence CAACAGCAAUAUUACGAUUA, the “self-splicing fitness (ln)” value runs as follows: (30 °C) -0.522 ± 0.082; (37 °C) -0.185 ± 0.082.
As for CGACAGCAAUAUUACGGGUU, the “self-splicing fitness (ln)” value is -3.47 ± 0.12 (30 °C) and -2.01 ± 0.12 (37 °C).
For AUUCAGCAAUAUUACGCACU the same measures were -0.181 ± 0.062 and 0.535 ± 0.086.
For GCUGAGCAAUAUUACGGCAA the same measures were -1.52 ± 0.21 and -2.9 ± 0.31.
As for UAUGAGCAAUAUUACGGAGA, the “self-splicing fitness (ln)” value is -2.48 ± 0.28 (30 °C) and -2.34 ± 0.27 (37 °C).
Turning to AAUGAGCAAUAUUACGUGGU, the “self-splicing fitness (ln)” value is -2.41 ± 0.11 (30 °C) and -3.49 ± 0.23 (37 °C).
For CUCCAGCAAUAUUACGUUCA the same measures were -3.32 ± 0.29 and -2.85 ± 0.25.
For UACGAGCAAUAUUACGGGAU the same measures were -2.49 ± 0.14 and -2.74 ± 0.27.
The like results for GUUGAGCAAUAUUACGUAGG were, in that order, -3.49 ± 0.22 and -2.93 ± 0.37.
GCUAAGCAAUAUUACGUCAA: the “self-splicing fitness (ln)” value is -1.5 ± 0.26 (30 °C) and -1.76 ± 0.32 (37 °C).
On to AUUCAGCAAUAUUACGCCUU, for which the “self-splicing fitness (ln)” value was -0.723 ± 0.079 (30 °C) and -0.133 ± 0.096 (37 °C).
For GUAAAGCAAUAUUACGGAUC the same measures were -0.198 ± 0.12 and 0.205 ± 0.15.
The like results for UUGAAGCAAUAUUACGGAUA were, in that order, -0.345 ± 0.08 and -0.413 ± 0.1.
Regarding GCGCAGCAAUAUUACGUUUA, the “self-splicing fitness (ln)” value was -1.01 ± 0.1 (30 °C) and -0.423 ± 0.1 (37 °C).
For UGACAGCAAUAUUACGGCUA the same measures were -0.14 ± 0.079 and 0.942 ± 0.11.
Take GAAGAGCAAUAUUACGGGCG: the “self-splicing fitness (ln)” value runs as follows: (30 °C) -3.54 ± 0.37; (37 °C) -2.84 ± 0.35.
In the case of UCCAAGCAAUAUUACGACUU, the “self-splicing fitness (ln)” value is, setting by setting: (30 °C) -3.57 ± 0.17; (37 °C) -2.54 ± 0.18.
The like results for UGUUAGCAAUAUUACGACCU were, in that order, -0.58 ± 0.16 and 0.317 ± 0.2.
AGUGAGCAAUAUUACGCGCU: the “self-splicing fitness (ln)” value (37 °C) is -1.83 ± 0.39.
As for GGGAAGCAAUAUUACGACCU, the “self-splicing fitness (ln)” value (30 °C) is -2.31 ± 0.27.
Turning to GGCUAGCAAUAUUACGCAGG, the “self-splicing fitness (ln)” value is -3.5 ± 0.28 (30 °C) and -1.81 ± 0.19 (37 °C).
The like results for AUAAAGCAAUAUUACGCUGU were, in that order, -0.921 ± 0.09 and -0.246 ± 0.1.
The like results for GCCAAGCAAUAUUACGUUAU were, in that order, -2.76 ± 0.14 and -0.784 ± 0.1.
For CGAAAGCAAUAUUACGGAGC the same measures were -4.16 ± 0.25 and -2.22 ± 0.16.
Consider UGAAAGCAAUAUUACGUGUG, for which the “self-splicing fitness (ln)” value was -1.67 ± 0.077 (30 °C) and -0.52 ± 0.081 (37 °C).
The like results for GACGAGCAAUAUUACGUCUC were, in that order, -3.48 ± 0.36 and -1.23 ± 0.28.
For UGUUAGCAAUAUUACGUUAU the same measures were -2.78 ± 0.16 and -2.67 ± 0.19.
